Results published in patent US20070031442A1.

What was measured:
soluble CD8αα (human) [1] = molecular target: soluble CD8αα (human) (UniProt P01732); assay: method not given
soluble CD8αα (human) [2] = molecular target: soluble CD8αα (human) (UniProt P01732); assay: surface plasmon resonance
soluble CD8αα (human) [3] = molecular target: soluble CD8αα (human) (UniProt P01732); assay: surface plasmon resonance, biotinylated pMHCI monomer
soluble CD8αα (human) [4] = molecular target: soluble CD8αα (human) (UniProt P01732); assay: surface plasmon resonance with sCD8αα wt; mean KD (n=3) printed over the bar, error bar drawn; sheet caption 'HLA A*0201 [..] tetramers'

| Kd (soluble CD8αα (human) [1]) | Kd (soluble CD8αα (human) [2]) | Kd (soluble CD8αα (human) [3]) | Kd (soluble CD8αα (human) [4]) | Substance |
| --- | --- | --- | --- | --- |
| < 5 µM | – | – | – | A2Kb chimeric class I pMHCI (HLA A2 with the α3 domain of murine H-2K^b) (from UniProt P61769 21-119) (peptide-MHC) |
| – | 980 µM | – | – | wild type HLA A*68011 biotinylated pMHCI (from UniProt P61769 21-119) (peptide-MHC) |
| – | 102 µM | – | – | 245A substituted HLA A*68011 biotinylated pMHCI (from UniProt P61769 21-119) (peptide-MHC) |
| 128 µM | – | 135 µM | 128 µM | wild type HLA A*0201 biotinylated pMHCI monomer (from UniProt P61769 21-119) (peptide-MHC) |
